According to the supplement of paper PMC10567573:

B1: ZNF511 (parent)
chain: AAPFRFVARPVRFPREHQFFEDGD
B2: LRRC45 (parent)
chain: FQTRQEMTSMSAELKMRAIQAEER

Variants of: B1
Assay: protein stability index of a GFP-peptide fusion (GPS, HEK-293T) (PSI 1-6); higher = more stable
Conditions: c terminus: a fixed tail appended
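Further: lentivirally expressed fusions sorted by FACS into six bins by GFP to DsRed ratio, PSI derived from sequencing read proportions per bin multiplied by bin number.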

Protein stability index of substitutions, site by site:
H17: T 2.35; M 2.37; I 2.59; N 2.71; S 2.2; C 2.66; Q 2.45; W 1.72; L 2.15; D 2.05; V 1.94
F13: K 2.17; I 2.48; S 1.86; L 2.49; R 2.32; A 2.25; Y 2.29; H 2.66
R15: M 1.89; S 2.48; L 3.44; W 1.65; C 2.03; E 2.06; D 1.72; H 1.84; P 2.85; A 1.94; Y 1.71; K 2.2
E16: Y 1.68; T 2.18; G 2.53; C 1.93; F 1.82; M 1.57; L 2.26; N 1.75; R 2.32
V7: E 4.61; D 3.73; H 2.04; S 3.76; Q 3.78; G 3.74; C 2.65
P10: C 2.36; S 1.5; Y 2.59; E 1.81; H 2.14; T 1.29; G 1.87; V 2.06
F19: P 2.63; Y 2.57; I 1.87; M 3.14; D 2.48; Q 2.46; A 2.52; G 2.8; R 2.4
Q18: D 1.8; W 2.44; T 1.69; E 1.96; M 2.86; V 1.9; G 1.87; Y 1.74
F6: D 4.19; N 4.55; T 4.03; Q 4.94; S 4.26; L 3.47; R 4.03; E 4.45; G 4.43; I 3.38; A 4.3; Y 1.69
A1: D 2.2; Y 4.23; I 1.82; T 1.22; S 2.07; M 3.08; Q 2.61; H 1.63; C 2.39; K 2.02; P 2.29
D24: E 3.01; Q 2.06; K 2.97; C 2.29; L 2.04
G23: V 1.9; N 2.36; Q 2.45; F 1.61; H 2.18; L 2.56; M 1.91; E 2.25
P3: N 2.04; G 1.66; Y 2.47; D 1.06; C 1.36; E 1.61; R 2.65; H 2.59; A 2.37; I 1.34
V11: I 2.08; H 2.04; K 1.75; A 1.96; T 1.94; N 1.95; C 2.02; F 1.99; D 2.14; P 2.03; R 2
R9: E 2.21; V 2.14; F 1.56; I 1.84; W 1.41; N 1.38; M 1.95; Y 1.84; K 1.95; Q 3.03; P 3.54
E21: S 2.24; L 1.92; I 1.97; A 1.96; K 2.19; H 2.5; D 2; N 2.29; F 1.65; W 1.69
R12: Y 1.74; D 1.85; N 2.37; W 1.9; H 2.18; C 1.62; T 2.62; A 1.48; K 2.29; F 1.54; Q 2.44; M 2.03
F4: N 4.37; T 4.36; C 3.4; W 2.48; R 3.94; E 4.46; Q 4.68; I 3.9; K 4.41; S 4.53; G 4.57
P14: T 1.87; I 2.33; K 2.93; A 2.16; H 1.69; W 1.34; F 2; M 2.17
F20: Q 2.42; H 1.91; D 2.54; G 2.59; A 2.2; R 2.32; C 2.95; M 2.49; N 2.56; P 2.75
A8: V 1.59; S 1.82; F 2.02; C 1.96; M 2.74; N 2.23; K 2.31
R5: E 4.26; L 2.63; H 3.3; T 4.17; V 3.58; F 2.18; D 4.8; W 1.89; K 3.91; P 3.92
D22: C 2.08; P 2.44; K 1.52; H 2.54; S 2.29; N 2.25; L 2.01; V 2.65; I 1.64
A2: K 2.01; F 1.85; I 2.69; Y 2.42; Q 2.1; H 2.48; C 2.05

Variants of: B2
Assay: as above
Conditions: c terminus: a fixed tail appended

Protein stability index of substitutions, site by site:
Q2: P 4.69; C 3.29; K 3.59; T 3.92; L 3.76; I 2.93; S 4.85; H 2.27; F 4.36; Y 3.78; M 4.3; E 5.13; R 4.18; G 4.85; A 3.67; D 4.48; N 3.89; W 4.01; V 2.23
F1: T 5.21; S 5.1; M 4.52; G 4.46; V 4.92; N 5.13; Y 4.02; R 4.42; K 5.1; Q 5.21; L 5.21; H 4.85; I 4.27; W 4.66; A 4.88; D 5.24; C 4.85; E 4.91; P 4.5
Q5: G 4.85; C 2.82; I 3.11; S 3.97; W 1.66; L 3.77; R 3.7; F 2.04; A 3.83; N 4.25; T 3.65; M 3.32; V 3.97; P 3.99; K 4.08; Y 1.79; H 3.54; E 4.31; D 4.71
R4: M 3.94; P 4.62; W 2.48; Q 4.14; K 4.08; F 3.37; S 4.39; G 4.34; N 4.35; E 4.95; V 3.77; H 3.66; C 4.63; I 4.09; T 4.46; Y 3.88; A 4.09; D 4.99; L 4.4
T3: R 3.55; Q 3.83; I 3.86; L 3.76; H 3.42; P 4.04; G 3.72; A 4.32; M 3.52; Y 3.22; W 2.06; D 4.4; F 3.95; K 4.28; E 5.23; V 3.43; N 3.52; C 3.02; S 3.97
E6: H 3.02; I 2.5; A 3.42; R 3.72; Q 3.44; M 3.36; C 3.33; L 3.03; D 3.63; P 2.78; K 3.53; S 4.01; G 3.48; F 2.27; N 3.87
